Reference: the DeepSol protein solubility set

Test: soluble on expression in E. coli; label from the status in PepcDB or PDB records

| Sequence | soluble on expression in E. coli |
| --- | --- |
| MSLTDSKYISIKGARVNNLKNIDVNIPRNKLVVITGLSGSGKSSLAFDTLYAEGQRRYVESLSSYARQFLGRMSKPECDFIKGIPPAIAIEQKVNSRNPRSTVGTSTEIYEYLRLLYARVGKTYSPVSGEEVKKHSIEDIVNCMLSYPEGTRYTVLTQIYLHDGRTLEQQLEIDRKQGFNRLEVNGEMVRIDEYAAGKEDVVYLLVDRMTAAKSKDAISRLTDSAETAMYEGDGMCMLRFYQPDGTTRLHTFSTKFEADGMTFEEPNDQMFSFNSPIGACPVCEGFGKVIGIDEHLVVPNRSLSVYDGAIVCWRGEKMGEWREELIHNAEKFNFPIFTPYYELTDEQRRVLWEGNQYFHGINDFFKMLEENQYKIQYRVMLARYRGKTLCPKCHGTRLKPEAGYVRVGGKNISELVDLPITELQKFFDSLTLNEHDQAVARRILTEINSRIRFLIDVGLGYLTLNRLSNSLSGGESQRINLATSLGSSLVGSLYILDEPSIGLHSRDTDRLVHVLRQLQQLGNTVVVVEHDEEIIRAADYIIDIGPNAGRLGGQVVYEGDMKDLKKGSNSYTVKYLLGEETIPVPEHRRPWNNYIEIKGARENNLKGVDARFPLNVMTVVTGVSGSGKSTLVRDIFYRALKRELDECSERPGEFVSIEGDLRNLRNVEFVDQNPIGKSSRSNPVTYIKAYDEIRKLWADQPLAKQMGYTAGHFSFNNEGGRCEECKGDGTITVEMQFMADLVLECESCHGKRFKADTLEVKFQDKNIYDILEMTVNQAIEFFTEHGQKKVVKKLIPLQDVGLGYIKLGQSSSTLSGGENQRVKLAYYLSQEKADPTLFIFDEPTTGLHFHDIRKLLDAFDALIRRGHSIVIIEHNMDVIKCADYVIDLGPEGGDKGGNIVATGTPEEVAACAASYTGQFLQEKLNHLEGHHHHHH | soluble |
| MSLRYPMSKLAYHRVLLKLSGEALMGSADYGIDPKVINRLAGEVIEAQNAGAELALVIGGGNIFRGAGLAAKGMDRVTGDHMGMLATIINALAMQDALEKLGTKVRVMSAIKINNVCEDFIRRRAIRHLEKSRITIFAAGTGNPFFTTDSGAALRAIEIGADLLLKATKVDGIYNKDPQKHCDAVKYSTLSYDEVISQNLEVMDTAAFALARDSNLPLRIFDIEQPGVLLRILHGEEIGTLVKERNSKSEGHHHHHH | not soluble |
| MSQEFVGRWKLIHSENFEEYMKEVGVGLITRKAAANLKPTLEIKVEGDLWYSNQYSTFKNTTLSFKLGQEFDETTPDGRTVKSVVNFENGKFIHIQKKIKDSDKESIITRWLEGDKLITTLESGSVVSRREYVRE | not soluble |
| GPGSMTYKLLAPLHPESARAQKIMVAAAYANVDVELKVCQYGQENETPEFARNCSPCMRFPSMQTEEGYLFESNAIMRHIARVEKSGAKLYGATPFESSQVDMWLDFASSELDAHNTPYLMETFAGIPAPESAMATLEESLAGLELWLETRTFLVGERMTVADISVAFALQWVYRMNVKHGEELTKKYRNAYRLYNTVMQQPKTVEVLKQWGATFGPAKAPKKAAEAKPKEGKKPKEAVEDEEEQPAKEEKKSNPLDALPPSSFVLDAYKREYSNTDTRTVAAPYFFEHYDAEGYTCFWARYKYNEDNKKQFMTANLVRGWFQRMEHVRKYAFGVALIIGEDAAHELVSFWVFRGKGMPEIVSEVVDTELFEWEEIKDVQAAKEKITDYLCWEGPTIPRPVLEGRCFK | soluble |
| MGSDKIHHHHHHMKTLLGIIAGKAAQSILTKLGRGSTYPGRLALACDKDILKDLSKDYDIVVVTGTNGKTLTTALTVGILKEAFGEIITNPSGANMITGITSTFLAAKKGKSERQIAVLEIDEASLPRITTYLKPSLFVYTNIFRDQMDRYGEIYTTYQMIVDGARNAPKATILANGDSPIFSSKDIVNPVQYYGFDTAKHAPQLAHYNTEGILCPKCEHILQYRLNTYANLGDFVCLNCQFQRPTLDYQLTELTAITHQSSEFVIDGQNYKINVGGLYNIYNALAAVSVAEFFGVSPEKIKAGFNKSKAVFGRQETFTVGDKSCTLILIKNPVGASQALEMIQLADYPFSLSVLLNANYADGIDTSWIWDANFELITQMPITEINAGGVRHSEIARRLRVTGFDDTKIKQAEKLEQIIETIEKQEAKHAYILATYTAMLEFRSLLADRHVVEKEMI | not soluble |
| MVEKIWFENHPLKYLLWPLLWPLSVLFGAISRSKRQQFQTGRKQAYQAPVPVVVVGNITAGGNGKTPVVVWLVEQLQHLGYKPGVVSRGYGAKAPQYPLVLNDDTPTQHCGDEPKLIHRRTGAPVAVDPVRANAVKALVELDVDIIITDDGLQHYALERDVELVIVDGNRRFGNECLIPLGPLREGVERLQEVDFIITNGGLAHQGEISMSLAPSKAINLKTKQQVDVSELKALVAFAGIGHPPRFFNTLESMHADVKVTKGFADHQDFDQKELEALALQGANVIMTEKDAVKCSDYAQDNWWYLPVSAQLEPKDAERILNRIKEVKATYGSPSAAAALEHHHHHH | soluble |
| MKANRSIACLLLAALPTLASAHVAEKVETLHDQALAEIPGHRGLMLTVSFKPGQVSAPHVHPGSVFVYVLEGTVQTQLEGGSVETYTVGQSWYEPANVPHLLARNPDPMKPAKLLVWELLKEGDPILKPLERGAH | not soluble |
| MGSDKIHHHHHHMAGVTKLTIAGFKSIRELRDFELRNLNVLIGANGAGKSNFIGFFKLLAEMYERRLQLFVQQQGGSDTLLHFSRKLTDKIEGELNFGTDYDHYRFELVVTNDNRLIFTNEQYWLHSRGSRPGEVGLLGGNKDESDLKKLAAQQKSPLIDDILNSTRVYHFHDTGEKAKVKQPHALNDTLRLKVDGANLAAYLRMLKTEHAESYRQIVDTIRLVAPFFDDFVFRADSASKIQLEWTERGDPDTPFTAHALSDGTLRFICLGTLLLQPWELMPATILIDEPELGLHPYAINLLADLLKRASEQKQLIVSTQSVELLDRLEPEDVIVVDRKDNASTFHRLDAVQLQDWLDDYSLGDLWKQNVLGGRPA | not soluble |
| KVITRGEATRLINKEDAVVVDLRQRDDFRKGHIAGAINLLPSDIKANNVGELEKHKSQPIIVVDGSGMQAQEPASALNKAGFEKVFVLKEGIAGWSGENLPLVRG | soluble |
| GAHMSVIKPEMKIKLCMRGTVNGHNFVIEGEGKGNPYEGTQILDLNVTEGAPLPFAYDILTTVFQYGNRAFTKYPADIQDYFKQTFPEGYHWERSMTYEDQGICTATSNISMRGDCFFYDIRFDGTNFPPNGPVMQKKTLKWEPSTEKMYVEDGVLKGDVNMRLLLEGGGHYRCDFKTTYKAKKEVRLPDAHKIDHRIEILKHDKDYNKVKLYENAVARYSMLPSQAK | soluble |
| MESGKMAPPKNAPRDALVMAQILKDMGITEYEPRVINQMLEFAFRYVTTILDDAKIYSSHAKKPNVDADDVRLAIQCRADQSFTSPPPRDFLLDIARQKNQTPLPLIKPYAGPRLPPDRYCLTAPNYRLKSLIKKGPNQGRLVPRLSVGAVSSKPTTPTIATPQTVSVPNKVATPMSVTSQRFTVQIPPSQSTPVKPVPATTAVQNVLINPSMIGPKNILITTNMVSSQNTANEANPLKRKHEDDDDNDIM | soluble |
| MGSDKIHHHHHHCSDNDSDLTIYIPDAGTAVKANFYIEDEPYVQTFNVAVTPETYPQLTEYGLPNDAVVHLQADPGKVDEYNAKNGTEYELLPEAAYDLTEEVLVKAGTPKSEEAVITVHAKGNIEAFKEYLLPVSITSVEGAVADHCCQTIYFIFRGSMDASNMELLDRTGWEALSASSEEPKEGDWGHSGLKEACLDGDLNTFWGTDWSTQHPQPPHWIVIDLKKTTHIQGFACQAREEGYDGPKEVTVEVSDDNATWTVAAKFKDIPAQGEFRSFLPAAVDGRYLKVTITAVNGGPHVTISELNLF | not soluble |
| MGSDKIHHHHHHMHQTILHAFSQHAASCYPNECCGLLIRQGNKAQYVKCENKATNKADEFVIDPQQYADIEELGAIIGICHSHPDASSKPSDRDRAMCEASGLPWHILSWPDGDLRTIVPTGERKSLLNRPFVHGVWDCYSCVRDWYSEVQQIHLPDFARQDGWWEGEQELYLDNFAKAGFVALPNINLADLQIGDVFLMQIQSQRVNHAAVYVGEGKILHHLYGRLSRYDIYGGYWQRNTRLIVRHCQ | not soluble |
| MKYFEFTFHTSPCTETVNDVLAAVLGEAGFESFVESEGGLTAYIQQALCDENTIKNAITEFPLPDTEITYTYVEAEDKDWNEEWEKNFFQPIVIDNRCVIHSTFHKDVPQATYDIVINPQMAFGTGHHETTSLIIGELLDNELKDKSLLDMGCGTSILAILARMRGARPCIAIDIDEWCVRNSIENIELNHVDDIAVSQGDASSLVGKGPFDIIIANINRNILLNDMKQYVACMHPGSELYMSGFYVDDIPFIRREAEKNGLTFVHHKEKNRWAAVKFTY | not soluble |
